The source of these data is patent publication US20220119536A1.

The target of this assay is human VEGF-A (human) (UniProt P15692). Nature of the assay: cell-based or functional assay.
human VEGF-A (human), sequence (P15692 other isoform, or with tags, fused parts or gaps limits assumed): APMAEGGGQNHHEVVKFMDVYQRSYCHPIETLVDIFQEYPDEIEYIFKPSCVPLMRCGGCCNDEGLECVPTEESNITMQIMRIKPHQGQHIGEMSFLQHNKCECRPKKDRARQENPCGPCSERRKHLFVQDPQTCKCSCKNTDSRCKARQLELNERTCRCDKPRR

EYLEA® (aflibercept) (Fc fusion), sequence (chain): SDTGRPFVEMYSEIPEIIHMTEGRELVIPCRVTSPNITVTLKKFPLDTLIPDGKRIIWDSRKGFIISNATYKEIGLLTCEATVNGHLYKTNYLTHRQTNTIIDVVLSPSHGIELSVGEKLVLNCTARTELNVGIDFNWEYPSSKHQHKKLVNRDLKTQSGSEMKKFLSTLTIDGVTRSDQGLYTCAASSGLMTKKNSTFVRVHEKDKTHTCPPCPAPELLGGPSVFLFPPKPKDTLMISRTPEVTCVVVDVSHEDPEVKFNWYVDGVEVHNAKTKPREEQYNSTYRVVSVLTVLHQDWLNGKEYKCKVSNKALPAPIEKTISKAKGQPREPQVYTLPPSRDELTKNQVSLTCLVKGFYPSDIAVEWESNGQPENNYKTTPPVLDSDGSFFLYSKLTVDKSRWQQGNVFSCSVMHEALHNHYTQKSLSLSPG

With EYLEA® (aflibercept) (Fc fusion), the ERK1/2 phosphorylation: Bottom plateau (AlphaLISA counts) (AlphaLISA counts) stood at 21700, the ERK1/2 phosphorylation: Top plateau (AlphaLISA counts) (AlphaLISA counts) amounted to 109000, the HRMEC proliferation Delta (area under the curve vs. basal): Bottom plateau (arbitrary units) (arbitrary units) came to 13.3 and the HRMEC proliferation Delta (area under the curve vs. basal): IC50 (pM) worked out at 171 pM. Besides, the HRMEC proliferation Delta (area under the curve vs. basal): LogIC50 is -9.77; the HRMEC proliferation Delta (area under the curve vs. basal): Top plateau (arbitrary units) (arbitrary units) was 129; the IC50, inhibition of VEGF-induced p38 MAPK phosphorylation is 740 pM; the Src phosphorylation (Y419): Bottom plateau (AlphaLISA counts) (AlphaLISA counts) was found to be 2210. The Src phosphorylation (Y419): IC50 was determined as 933 pM, the Src phosphorylation (Y419): LogIC50 is -9.37, the Src phosphorylation (Y419): Top plateau (AlphaLISA counts) (AlphaLISA counts) amounted to 3420 and the concentration for full inhibition of VEGF-induced HRMEC proliferation was > 16 nM. Further, the p38-MAPK phosphorylation (T180/Y182): Bottom plateau (AlphaLISA counts) (AlphaLISA counts) is 8890, the p38-MAPK phosphorylation (T180/Y182): IC50 was 748 pM, the p38-MAPK phosphorylation (T180/Y182): LogIC50 was -9.13 and the p38-MAPK phosphorylation (T180/Y182): Top plateau (AlphaLISA counts) (AlphaLISA counts) was determined as 23100.
